Experimental data from PMC6504924 (2019).
Values belong to the binder of their own block, whether it stands above or below them.

Assays:
[1] = target: T1, NanoLuc:PDGFRβ fusion on cells (UniProt P09619 33-1106)
[2] = target: T1, NanoLuc:PDGFRβ fusion on cells; remark: listed apart in the source
[3] = target: T2, NanoLuc:VEGFR2 fusion on cells (UniProt P35968 20-1356); assay: competition with CBT-labeled VEGF165a
[4] = target: T2, NanoLuc:VEGFR2 fusion on cells; assay: competition with CBT-labeled VEGF165a; remark: listed apart in the source
[5] = target: T2, NanoLuc:VEGFR2 fusion on cells
[6] = target: T1, NanoLuc:PDGFRβ fusion on cells; assay: competition with CBT-labeled PDGF-BB
[7] = target: T1, NanoLuc:PDGFRβ fusion on cells; assay: competition with CBT-labeled PDGF-BB; remark: listed apart in the source
[8] = target: T3, NanoLuc:EGFR fusion on cells (UniProt P00533 25-1210)
[9] = target: T3, NanoLuc:EGFR fusion on cells; remark: listed apart in the source
[10] = target: T3, NanoLuc:EGFR fusion on cells; assay: competition with CBT-labeled EGF
[11] = target: T3, NanoLuc:EGFR fusion on cells; assay: competition with CBT-labeled EGF; remark: listed apart in the source

T1 sequence (P09619 33-1106): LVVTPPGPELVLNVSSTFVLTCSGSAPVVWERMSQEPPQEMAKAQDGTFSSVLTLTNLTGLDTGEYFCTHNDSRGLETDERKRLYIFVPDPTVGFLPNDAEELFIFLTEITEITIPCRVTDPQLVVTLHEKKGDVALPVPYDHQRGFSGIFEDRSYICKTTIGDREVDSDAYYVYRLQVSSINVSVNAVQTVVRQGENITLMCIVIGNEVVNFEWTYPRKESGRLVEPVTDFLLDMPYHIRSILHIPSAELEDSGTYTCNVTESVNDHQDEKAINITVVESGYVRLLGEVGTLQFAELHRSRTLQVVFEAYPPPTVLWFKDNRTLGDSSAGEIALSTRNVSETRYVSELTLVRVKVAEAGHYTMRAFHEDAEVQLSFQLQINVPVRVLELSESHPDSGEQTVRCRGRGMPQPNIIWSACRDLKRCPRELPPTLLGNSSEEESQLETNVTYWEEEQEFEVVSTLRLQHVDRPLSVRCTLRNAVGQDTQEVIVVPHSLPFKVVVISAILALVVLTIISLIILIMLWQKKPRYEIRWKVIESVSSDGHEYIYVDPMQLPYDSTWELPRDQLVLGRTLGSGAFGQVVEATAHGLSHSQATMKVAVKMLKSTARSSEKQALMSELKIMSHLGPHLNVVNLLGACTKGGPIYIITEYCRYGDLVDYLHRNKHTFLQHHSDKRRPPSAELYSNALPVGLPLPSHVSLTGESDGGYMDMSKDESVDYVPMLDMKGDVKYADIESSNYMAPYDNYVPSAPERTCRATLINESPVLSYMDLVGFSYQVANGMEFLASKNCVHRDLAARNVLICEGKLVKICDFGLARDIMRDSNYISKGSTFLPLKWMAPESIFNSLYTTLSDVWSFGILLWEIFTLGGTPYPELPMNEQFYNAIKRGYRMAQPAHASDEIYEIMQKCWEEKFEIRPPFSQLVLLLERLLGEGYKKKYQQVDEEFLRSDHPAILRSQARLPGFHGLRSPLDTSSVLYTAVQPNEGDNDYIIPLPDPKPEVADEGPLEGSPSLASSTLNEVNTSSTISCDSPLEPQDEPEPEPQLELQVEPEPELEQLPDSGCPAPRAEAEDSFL
T2 sequence (P35968 20-1356): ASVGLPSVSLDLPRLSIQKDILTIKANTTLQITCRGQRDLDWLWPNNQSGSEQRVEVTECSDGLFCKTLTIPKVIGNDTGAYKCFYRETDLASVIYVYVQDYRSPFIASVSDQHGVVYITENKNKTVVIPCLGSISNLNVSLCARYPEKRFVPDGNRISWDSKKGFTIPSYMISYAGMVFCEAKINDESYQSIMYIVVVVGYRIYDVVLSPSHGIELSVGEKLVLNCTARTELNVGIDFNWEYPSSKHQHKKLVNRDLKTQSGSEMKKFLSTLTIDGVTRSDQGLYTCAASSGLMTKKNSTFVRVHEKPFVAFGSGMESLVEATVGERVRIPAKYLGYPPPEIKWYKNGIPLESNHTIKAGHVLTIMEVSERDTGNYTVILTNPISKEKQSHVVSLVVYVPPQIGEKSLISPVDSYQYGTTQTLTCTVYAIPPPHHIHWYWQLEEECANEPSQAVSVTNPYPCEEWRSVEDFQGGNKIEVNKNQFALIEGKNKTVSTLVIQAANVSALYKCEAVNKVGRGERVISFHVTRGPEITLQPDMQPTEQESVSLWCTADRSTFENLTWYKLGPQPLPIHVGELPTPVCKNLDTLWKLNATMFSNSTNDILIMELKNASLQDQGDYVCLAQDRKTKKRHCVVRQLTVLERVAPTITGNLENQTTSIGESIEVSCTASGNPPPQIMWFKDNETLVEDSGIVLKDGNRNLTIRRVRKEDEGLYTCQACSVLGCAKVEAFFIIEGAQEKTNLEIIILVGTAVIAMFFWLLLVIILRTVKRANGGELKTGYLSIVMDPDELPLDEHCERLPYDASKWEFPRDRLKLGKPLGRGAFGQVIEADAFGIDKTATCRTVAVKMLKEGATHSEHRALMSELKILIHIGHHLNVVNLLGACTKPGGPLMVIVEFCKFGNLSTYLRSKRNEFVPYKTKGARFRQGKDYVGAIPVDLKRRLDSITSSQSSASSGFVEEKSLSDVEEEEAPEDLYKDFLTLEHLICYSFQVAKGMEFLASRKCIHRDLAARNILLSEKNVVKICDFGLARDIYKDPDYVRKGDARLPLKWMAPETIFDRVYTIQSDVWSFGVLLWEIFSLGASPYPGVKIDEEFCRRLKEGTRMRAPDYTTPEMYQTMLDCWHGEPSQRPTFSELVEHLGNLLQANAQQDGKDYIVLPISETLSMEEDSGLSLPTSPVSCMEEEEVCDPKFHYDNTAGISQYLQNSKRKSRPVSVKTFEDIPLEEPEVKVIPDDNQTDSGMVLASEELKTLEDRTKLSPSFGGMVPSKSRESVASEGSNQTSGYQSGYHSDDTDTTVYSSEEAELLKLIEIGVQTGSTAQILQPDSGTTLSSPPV

B1: CBT-labeled PDGF-BB homodimer (platelet-derived growth factor labeled with DY605-PEG-CBT on the N-terminal cysteine) (ligand)
chain: CDNSLGSLTIAEPAMIAECKTRTEVFEISRRLIDRTNANFLVWPPCVEVQRCSGCCNNRNVQCRPTQVQLRPVQVRKIEIVRKKPIFKKATVTLEDHLACKCETVAAARPVT
modifications: DY605-PEG-CBT on the N-terminal cysteine (>=95% efficiency)
- EC50 [1]: 0.068 nM
- Kd [2]: 0.062 nM

B3: CBT-labeled VEGF165a homodimer (vascular endothelial growth factor isoform VEGF165a labeled with DY605-PEG-CBT on the N-terminal cysteine) (ligand)
chain: CDNAPMAEGGGQNHHEVVKFMDVYQRSYCHPIETLVDIFQEYPDEIEYIFKPSCVPLMRCGGCCNDEGLECVPTEESNITMQIMRIKPHQGQHIGEMSFLQHNKCECRPKKDRARQENPCGPCSERRKHLFVQDPQTCKCSCKNTDSRCKARQLELNERTCRCDKPRR
modifications: DY605-PEG-CBT on the N-terminal cysteine (>=95% efficiency)
- Kd [5]: 0.049 nM

B5: CBT-labeled EGF (epidermal growth factor labeled with DY605-PEG-CBT on the N-terminal cysteine) (ligand)
chain: CDNNSDSECPLSHDGYCLHDGVCMYIEALDKYACNCVVGYIGERCQYRDLKWWELR
modifications: DY605-PEG-CBT on the N-terminal cysteine (>=95% efficiency)
- EC50 [8]: 0.13 nM
- Kd [9]: 0.16 nM

Next, values leading:

- Ki [3]: 0.047 nM
- IC50 [4]: 0.12 nM
B2: unlabeled VEGF165a homodimer purified in the same manner (with CDN N-terminal appendage) (ligand)
chain: CDNAPMAEGGGQNHHEVVKFMDVYQRSYCHPIETLVDIFQEYPDEIEYIFKPSCVPLMRCGGCCNDEGLECVPTEESNITMQIMRIKPHQGQHIGEMSFLQHNKCECRPKKDRARQENPCGPCSERRKHLFVQDPQTCKCSCKNTDSRCKARQLELNERTCRCDKPRR
modifications: disulfide-linked homodimer; unlabeled; mature VEGF165 limits by convention (191-aa AUG-initiated isoform precursor, signal 1-26)

- IC50 [6]: 0.11 nM
- Ki [7]: 0.044 nM
B4: unlabeled PDGF-BB homodimer purified in the same manner (with CDN N-terminal appendage) (ligand)
chain: CDNSLGSLTIAEPAMIAECKTRTEVFEISRRLIDRTNANFLVWPPCVEVQRCSGCCNNRNVQCRPTQVQLRPVQVRKIEIVRKKPIFKKATVTLEDHLACKCETVAAARPVT

- Ki [10]: 0.15 nM
- IC50 [11]: 0.35 nM
B6: unlabeled EGF purified in the same manner (with CDN N-terminal appendage) (ligand)
chain: CDNNSDSECPLSHDGYCLHDGVCMYIEALDKYACNCVVGYIGERCQYRDLKWWELR
modifications: not fully specified

- EC50 [8]: 0.16 nM
B7: EGF labeled with 2-fold molar excess of DY605-NHS-ester (ligand)
chain: CDNNSDSECPLSHDGYCLHDGVCMYIEALDKYACNCVVGYIGERCQYRDLKWWELR
modifications: DY605-NHS-ester on multiple lysines and on the N-terminus, heterogeneous (0-2 fluorophores per protein)

- EC50 [8]: 0.25 nM
B8: EGF labeled with 5-fold molar excess of DY605-NHS-ester (ligand)
chain: CDNNSDSECPLSHDGYCLHDGVCMYIEALDKYACNCVVGYIGERCQYRDLKWWELR
modifications: DY605-NHS-ester on multiple lysines and on the N-terminus, heterogeneous (0-2 fluorophores per protein)
